In the experiment the target is SARS-CoV-2 spike protein variant Y483A (Table 27), on VSV pseudoparticles (SARS-CoV-2) (UniProt P0DTC2). Kind of experiment: cell-based or functional assay.

The substance mAb10987 (antibody) displayed a Relative neutralization (5 µg/ml, Vero cells) of 99%.
